From patent US20170129961A1 (Amgen, published 2017)
Numbering of substitutions follows the chain as printed.

T1: human CD70 (human, UniProt P32970 1-193)
T1 construct: also called hu CD70; CD27L
T1 sequence: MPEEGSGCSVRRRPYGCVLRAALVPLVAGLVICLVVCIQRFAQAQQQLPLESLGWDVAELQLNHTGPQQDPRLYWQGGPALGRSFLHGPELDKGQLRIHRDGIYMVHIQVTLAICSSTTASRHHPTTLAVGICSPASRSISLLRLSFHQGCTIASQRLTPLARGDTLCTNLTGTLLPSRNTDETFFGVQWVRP

T2: full-length mouse CD70 with C-terminal V5 tag (mouse, UniProt O55237 1-195)
T2 construct: On transfected CHO cells; also called murine CD70
T2 sequence: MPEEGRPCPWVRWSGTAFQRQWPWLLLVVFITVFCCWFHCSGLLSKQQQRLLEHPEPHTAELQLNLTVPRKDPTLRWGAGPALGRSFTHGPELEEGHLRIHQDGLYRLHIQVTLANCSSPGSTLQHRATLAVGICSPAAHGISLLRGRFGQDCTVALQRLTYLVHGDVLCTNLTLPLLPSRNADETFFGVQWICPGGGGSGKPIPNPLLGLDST

T3: full length human CD70 with C-terminal V5 tag (human, UniProt P32970 1-193)
T3 construct: On transfected CHO cells; also called huCD70-V5
T3 sequence: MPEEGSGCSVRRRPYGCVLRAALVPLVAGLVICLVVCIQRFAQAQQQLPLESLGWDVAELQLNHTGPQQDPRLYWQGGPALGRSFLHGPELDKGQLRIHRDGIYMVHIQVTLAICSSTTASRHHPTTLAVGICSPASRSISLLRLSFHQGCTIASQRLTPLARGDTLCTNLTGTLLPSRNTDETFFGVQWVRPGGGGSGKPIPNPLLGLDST

B1: CD70-59 (scFv)
scFv: QVQLQQWGAGLLKPSETLSLTCAVYDGSVSGFYWSWIRQPPGKGLEWIGEIDHSGSTNYNPSLKSRVTISVDTSKNQFSLKLSSVTAADSAVYYCARNGYSGYLFDYWGQGTLVTVSSGGGGSGGGGSGGGGSDIQMTQSPSSLSASVGDRVTITCRASQIISSYLNWYQQKPGKAPKVLIYGASSMQSGVPSRFSGSGYGTDFTLTISSLQPEDFATYYCQQSYSIPRTFGQGTKLEIK
B2: CD70-62 (scFv)
scFv: EVQLVESGGGLVKPGGSLRLSCAASGFTFSSYSMNWVRQAPGKGLEWVSYISSSGGYIYYADSVKGRFTISRDNAKNSLYLQMNSLRAEDAAVYYCSRGDYSNYAYFDYWGQGTLVTVSSGGGGSGGGGSGGGGSDIQMTQSPSSLSASVGDRVTITCRASQGISNYLAWYQQKPGKVPKLLIYAASTLQSGVPSRFSGSGSGTDFTLTISSLQAEDVAVYYCQQYYSTPLTFGGGTKVEIK
notes: As m32
B3: CD70-73 (scFv)
scFv: B2 scFv with G44C, G235C
notes: As m32
B4: CD70-57 (scFv)
scFv: QVQLVESGGGVVQPGRSLRLSCAASGFTFSSYGMHWVRQAPGKGLEWVAVIWYDGSSEYYADSVKGRFTISRDNSKNTLYLQMNSLRAEDTAVYYCARDNSYNYYGMDVWGQGTTVTVSSGGGGSGGGGSGGGGSQSVLTQPPSVSGAPGQRVTISCTGSSSNIGAAYDVHWYQQFPGTAPKLLIYVNSHRPPGVPDRFSGSKSGTSASLAITGLQAEDEADYYCLSYDNSLSGSVFGGGTKLTVL
B5: CD70-63 (scFv)
scFv: EVQLVESGGGLVKPGGSLRLSCAASGITFSTYTMNWVRQAPGKGLEWVSSISSSSGYIYYADSVKGRFTISRDNAKNSLYLQMNSLRAEDTAVYYCARGDYSNYLYFDLWGRGTLVTVSSGGGGSGGGGSGGGGSEIVLTQSPGTLSLSPGERATLSCRASQSFRSSYLAWYQQKPGQAPRLLIHGASSRATGIPDRFSGSGSGTDFTLTISRLEPEDFAVYYCQLYGSLPITFGQGTRLEIK
B6: CD70-58 (scFv)
scFv: QVQLQESGPGLVKPSQTLSLTCTVSGGSISSSSYYWGWIRQPPGKGLEWIGSIYHSGGTYFNPSLKSRVTISVDTSKNQFSLKLSSVTAADTAVYYCARHYEILTGYYPDVFDIWGQGTMVTVSSGGGGSGGGGSGGGGSDIQMTQSPSSLSASVGDRVTITCRASQSISSYLNWYQQKPGKAPKLLIYAASNLQSGVSSRFSGSGSGTDFTLTISSLQPEDFATYYCQQSFSSPRTFGQGTKVEIK
B7: CD70-37 (scFv)
scFv: EVQLLESGGGLVQPGGSLRLSCAASGFTFSSYAMSWVRQAPGKGLEWVSAIGDGGGYTYYADSVKGRFTISRDNSKNTLSLLMNSLRAEDTAVYYCARHDYSNYPYFDYWGQGTLVTVSSGGGGSGGGGSGGGGSEIVLTQSPGTLSLSPGERATLSCRASQGVRSSYFAWYQQKPGQAPRLLIYGASTRATGIPARFSGSGSGTDFTLTISRLEPEDFAVYYCQQYGSSPPTFGQGTKVEIK
notes: As m32
B8: CD70-48 (scFv)
scFv: EVQLLESGGGLVQPGGSLRLSCAASGFTFSSYAMSWVRQAPGKGLEWVSVISDSGGITDFADSVKGRFTISRDNSRNTLYLQMNSLRAEDTAVYFCARHDYSNYFFFDYWGQGTLVTVSSGGGGSGGGGSGGGGSDIQMTQSPSSLSASVGDRVTITCRASQGISNYLAWYQQKPGKVPKLLIYAASILQSGVPSKFSGSGSGTDFTLTISSLQPEDFAIYYCQQYFAYPITFGQGTRLEIK
notes: As m32
B9: CD70-68 (scFv)
scFv: B8 scFv with G44C, Q235C
notes: As m32
B10: CD70-52 (scFv)
scFv: QVQLQESGPGLVKPSETLSLTCTVSGGSVSTDGYYWSWIRQPPGKGLEWIGYIYYSGSTNYNPSLKSRVTISVDTSKNQFSLKLSSVTAADTAVYYCARGIGLGFEYWGQGTLVTVSSGGGGSGGGGSGGGGSSYVLTQLSSVSVAPGQTARITCGGNNIGSKSVHWYQQKPGQAPVLVVYDDSDRPSGIPERFSGSNSGNTATLTISRVEAGDEADYYCQVWDRSSDQDVVFGGGTKLTVL
notes: As m32
B11: CD70-51 (scFv)
scFv: B10 scFv with S141T, Y218F
notes: As m32
B12: CD70-69 (scFv)
scFv: B10 scFv with G46C, S85I, G235C
notes: As m32
B13: CD70-56 (scFv)
scFv: QVQLVESGGGVVQPGRSLRLSCAASGFTFSSYGMHWVRQAPGKGLEWVAVISYDGSNKYYADSVKGRFTISRDNSKNTLYLQMNSLRAEDTAVYYCARGRYYGSGSYNYGMDVWGQGTTVTVSSGGGGSGGGGSGGGGSDIQMTQSPSSLSASVGDRVTITCRASQSIFDYLNWYQQKPGKAPKLLIYAASSLQSGVPSRFSGSGFGTDFTLTISSLQPEDFATYYCQQSYSTPLTFGGGTKLEIK
notes: As m32
B14: CD70-71 (scFv)
scFv: B13 scFv with G44C, G239C
notes: As m32
B15: CD70-44 (scFv)
scFv: EVQLLESGGGLVQPGGSLRLSCAASGFTFSSYAMSWVRQAPGKGLEWVSVISDSGGITDFADSVKGRFIISRDNSRNTLYLQMNSLRAEDTAVYFCARHDYSNYFFFDYWGQGTLVTVSSGGGGSGGGGSGGGGSDIQMTQSPSSLSASVGDRVTITCRASQDISNYLNWYQQKSGKAPELLIYAASSLQSGVPSRFSGSGSGTDFTLTISSLQPEDFATYYCQQSYISPPTFGQGTKVEIK
notes: As m32
B16: CD70-67 (scFv)
scFv: B15 scFv with G44C, Q235C
notes: As m32
B17: CD70-61 (scFv)
scFv: B15 scFv with I69T, V154I, D163S, S175P, E180K, Y184S, S229I, E240D
notes: As m32
B18: CD70-64 (scFv)
scFv: EVQLLESGGGLVQPGGSLRLSCAASGFTFSVYAMSWVRQAPGKCLEWVSTISDSGGSTFYADSVKGRFTISRDNSKNTLYLQMNRLRAEDTAVYYCARHDYSNYAYFDYWGQGTLVTVSSGGGGSGGGGSGGGGSEIVLTQSPGTLSLSPGERATLSCRASQSVRSSYLAWYQQKPGQAPRLLIYGASSRATGIPDRFSGSGSGTDFTLTISRLEPEDFAVYYCQQYGDLPFTFGCGTKVEIK
notes: As m32
B19: CD70-33 (scFv)
scFv: EVQLLESGGGLVQPGGSLRLSCAASGFTFSTYAMSWVRQAPGKGLEWVSTISDSGGSTFYADSVMGRFTISRDNSKNTLYLQMNSLRAEDTAVYYCARHDYSNYAFFDYWGQGTLVTVSSGGGGSGGGGSGGGGSEIVLTQSPATLSVSPGERATLSCRASQSVSSNLAWYQQKPGQAPRLLIYGASSRATGIPDRFSGSGSGTDFTLTISSLQAEDVAVYYCQQYYSTPFTFGPGTKVEIK
notes: As m32
B20: CD70-34 (scFv)
scFv: B19 scFv with S188T, D195A, D205E, T209A, S212R, Q214E, A215P, V218F, P235G
notes: As m32

What was measured:
Test in all cases: FACS on CHO cells, periplasmic scFv
[1] = target: T1, human CD70
Description: (§1) All antibodies were diluted in PBS/1.5% FCS. As negative control, cells were incubated with PBS/2% FCS instead of the periplasmic extract. The samples were measured by flow cytometry.

[2] = target: T2, full-length mouse CD70 with C-terminal …
Description: as §1

[3] = target: T3, full length human CD70 with C-terminal …
Description: as §1

Binder	binding result [1]	binding result [2]	binding result [3]
B1	binds	no binding	–
B2	binds	no binding	–
B3	binds	no binding	–
B4	binds	no binding	–
B5	binds	no binding	–
B6	binds	no binding	–
B7	binds	no binding	–
B8	binds	no binding	–
B9	binds	no binding	–
B10	binds	no binding	–
B11	binds	no binding	–
B12	binds	no binding	–
B13	binds	no binding	no binding
B14	binds	no binding	no binding
B15	binds	no binding	–
B16	binds	no binding	–
B17	binds	no binding	–
B18	binds	no binding	–
B19	binds	no binding	–
B20	binds	no binding	–
